The text below walks through data of patent US20100028924A1, “Method Of Diagnosing Pon1-Hdl Associated Lipid Disorders” (Rappaport Family Institute Research in the Medical Sciences, priority 2006, published 2010).

The subject of series [1] is apoA-I rHDL. The series is described as follows: Inactivation kinetics of rePON1 192 isozymes bound to rHDL-apoA-I (EDTA/β-mercaptoethanol, residual phenyl acetate hydrolysis). The class given is biochemical. The note with it: apoA-I rHDL, 50-fold molar excess; EDTA and β-mercaptoethanol, 37° C. As to the method:
(§1) FIG. 1 is a graph showing the inactivation kinetics of the wild-type rePON1-192K (SEQ ID NO:2), -192R (SEQ ID NO:4) and -192Q (SEQ ID NO:6) isozymes, bound to rHDL-apoA-I, or in buffer. Delipidated enzymes were incubated with a 50-fold excess of rHDL-apoA-I, or in activity buffer, and subjected to inactivation in the presence of EDTA (5 mM) and β-mercaptoethanol (10 mM) at 37° C. Residual activity at various time points was determined by initial rates of phenyl acetate hydrolysis (2 mM) and plotted as percent of the activity at time zero. Data were fitted to a single exponential for wild-type rePON1-192K on rHDL-apoA-I, and to double-exponentials for the remaining samples. The inactivation rate constants and amplitudes were derived from this fit;
(§2) Inactivation rates of rePON1s were measured as described [Gaidukov, L. and D. S. Tawfik, Biochemistry, 2005. 44(35): p. 11843-54]. Briefly, rePON1 samples were delipidated using Bio-Beads SM-2 (BioRad) and incubated in buffer, or with 50-fold molar excess of rHDL-apoA-I. EDTA (10 mM) and β-mercaptoethanol (20 mM) were added, and samples were incubated at 37° C. Residual activity at different time points was determined with 2 mM phenyl acetate, and inactivation rates were fitted to either mono- or double-exponentials [Gaidukov, L. and D. S. Tawfik, Biochemistry, 2005. 44(35): p. 11843-54].
(§3) The resultant inactivation profiles of wt rePON1 (SEQ ID NO: 2), rePON1-192Q (SEQ ID NO: 6) and rePON1-192R (SEQ ID NO: 4), were fitted to exponential curves as illustrated in FIG. 1.

Series [2] is described as follows: Inactivation kinetics of rePON1 192 isozymes in activity buffer. Format: biochemical. Particulars: EDTA and β-mercaptoethanol, 37° C. As to the method: as §1, §2, §3
The test system of series [3] is apoA-I rHDL. The series is described as follows: Surface plasmon resonance binding of Δ20-rePON1 192 isozymes to immobilized rHDL-apoA-I. The note with it: relative to the Q isozyme. As to the method: FIGS. 2A-C are sensorgrams for the binding of wt Δ20-rePON1-192K—SEQ ID NO:8 (FIG. 2A), Δ20-rePON1-192R—SEQ ID NO:10 (FIG. 2B) and Δ20-rePON1-192Q—SEQ ID NO:12 (FIG. 2C) isozymes to rHDL-apoA-I. Biotinylated rHDL-apoA-I particles were immobilized onto the streptavidin surface (SA chip), and a series of PON1 concentrations were injected over the immobilized and blank surfaces to obtain the net binding response. Binding was performed at 25° C. Association and dissociation phases were fitted to a single exponential, from which kinetic rate constants were derived. PON1 concentrations in all the sensorgrams are (from bottom to top) 25, 40, 60, 80, 100, 150 and 200 nM;
Surface plasmon resonance (SPR) measurements: rHDL-apoA-I particles containing 0.7% of N-biotinyl-dipalmitoylphosphatidylethanolamine (N-biotynyl-DPPE; Avanti Polar Lipids) were prepared and purified as described [Gaidukov, L. and D. S. Tawfik, Biochemistry, 2005. 44(35): p. 11843-54]. SPR was performed on BIAcore 3000 (Uppsala, Sweden) as described [Gaidukov, L. and D. S. Tawfik, Biochemistry, 2005. 44(35): p. 11843-54]. Briefly, the biotinylated rHDL particles were adsorbed on streptavidin (SA5) chip, and Δ20-rePON1 isozymes were injected over the immobilized and blank surfaces to obtain the net binding response. Binding rate constants were obtained by fitting of association and dissociation phases to single exponentials as described [Gaidukov, L. and D. S. Tawfik, Biochemistry, 2005. 44(35): p. 11843-54].
The above results were further supported by affinity measurements using surface plasmon resonance. It was previously shown that HDL affinity of the intact rePON1 is very high (sub-nanomolar) and could not be determined accurately using surface plasmon resonance [Gaidukov, L., and Tawfik, D. S. (2005)Biochemistry 44, 11843-11854]. In contrast, binding affinity of the truncated variant lacking the first 20 amino acids of the hydrophobic N-terminus (Δ20-rePON1) could be amply determined. Therefore, the truncated variants of PON1 192 isozymes were prepared and their HDL binding affinities measured. Typical binding sensorgrams between Δ20-rePON1 isozymes and the immobilized HDL particles are portrayed in FIGS. 2A-C, and the derived rate and affinity constants are summarized in Table 2 herein below.

In series [4] the test system is apoA-I rHDL. The series is described as follows: Stimulation of enzymatic activity of rePON1 192 isozymes by rHDL-apoA-I. The class given is biochemical. Particulars: for Vmax (%) activation factor: relative to delipidated enzyme (100%). An excerpt:
The activity is presented in relation to the initial activity of the delipidated enzymes (percentage of stimulation). Data were fitted to the Langmuir saturation curve, from which the activation factor (Vmax) and the apparent affinity (Kapp) were derived;
Stimulated activity is presented as the percentage of the initial activity of the delipidated enzymes (corresponds to 100%). Data were fitted to the Langmuir saturation curve, from which the activation factor (Vmax) and the apparent affinity (Kapp) were derived;
Delipidated rePONs at 0.2 μM were incubated with a range of rHDL concentrations (0.1-10 μM) for 3 hrs at 37° C. Enzymatic activity was determined in activity buffer (50 mM Tris pH 8.0, 1 mM CaCl2) with substrates at 1 mM concentrations as described [Gaidukov, L. and D. S. Tawfik, Biochemistry, 2005. 44(35): p. 11843-54]. 5-(thiobutyl)-butyrolactone (TBBL) was applied at 0.25 mM, and product formation was monitored spectrophotometrically at 412 nm using 5,5′-dithio-bis-2-nitrobenzoic acid (DTNB) as described [Khersonsky, O. and D. S. Tawfik, Chembiochem, 2006. 7(1): p. 49-53].
Stimulation of the enzymatic activity was examined by incubating rePON1 isozymes with a range of rHDL concentrations (at the HDL/PON ratio of 0.5-50), and measuring the catalytic activity with various substrates as detailed hereinabove. FIGS. 3A-B illustrate the enzymatic activity of the rePON1 isozymes with δ-nonanoic lactone as substrate (FIG. 3A) and thiobutyl butiryl lactone (TBBL) as substrate (FIG. 3B). FIGS. 4A-D illustrate the enzymatic activity of the rePON1 isozymes with γ-dodecanoic lactone as substrate (FIG. 4A), δ-valerolactone as substrate (FIG. 4B), phenyl acetate as substrate (FIG. 4C) and paraoxon as substrate (FIG. 4D). Data were fitted to the Langmuir saturation curve to give the activation factor Vmax (in percent relative to the delipidated PON1) and the apparent affinity Kapp.

Series [5] concerns the target apoA-I rHDL. The note with it: previously shown; could not be determined accurately by SPR; cited from earlier work.
Series [6] relates to apoA-I rHDL. The series is described as follows: Inactivation kinetics of human PON1 192 isozymes on rHDL-apoA-I (NTA/β-mercaptoethanol). Particulars: 50-fold molar excess rHDL-apoA-I; NTA and β-mercaptoethanol each 5 mM, 25° C. Format: biochemical. On the procedure: (§4) FIGS. 5A-B are graphs showing the inactivation and catalytic stimulation of the human PON1 192R/Q isozymes. FIG. 5A is a line graph showing the inactivation kinetics of human PON1-192R and -192Q in the presence of rHDL-apoA-I. The delipidated isozymes (0.2 μM) were incubated with a 50-fold molar excess of rHDL-apoA-I in activity buffer, and subjected to inactivation by NTA and β-mercaptoethanol (each at 5 mM) at 25° C. Residual activity determined as above (FIG. 1) and data were fitted to a double-exponential function. FIG. 5B is a bar graph showing stimulation of the enzymatic activity of human PON1-192R and -192Q by rHDL-apoA-I. The delipidated isozymes were incubated with a 50-fold molar excess of rHDL-apoA-I, and enzymatic activity was determined with various substrates (at 1 mM for all the substrates, except TBBL at 0.25 mM). The activity is presented in relation to the initial activity of the delipidated enzymes (percentage of stimulation). Each bar represents the mean and S.D. of at least two independent measurements;
Human PON1-192R and Q isozymes purified from pooled blood samples [Gan, K. N., et al., Drug Metab Dispos, 1991. 19(1): p. 100-6] were kindly provided by Dr. Dragomir Draganov (University of Michigan, Ann Arbour), and stored in presence of 0.1% tergitol and 20% glycerol. Prior to assay, these samples were briefly delipidated [Gaidukov, L. and D. S. Tawfik, Biochemistry, 2005. 44(35): p. 11843-54] and dialyzed against activity buffer to remove the tergitol and glycerol that interfere with HDL binding. Dialyzed samples (0.2 μM) were incubated with rHDL (10 μM). Stability assays were performed at 25° C., in activity buffer supplemented with nitrilotriacetic acid (NTA) and β-mercaptoethanol, both at 5 mM. Data analysis was performed as described above for rePON1s. Stimulation of enzymatic activities was measured with various substrates at 1 mM concentration, except for TBBL (0.25 mM).
The progress of inactivation of human PON1 isozymes anchored on rHDL-apoA-I is illustrated in FIG. 5A. Inactivation of both isozymes followed a two-phase kinetics with similar inactivation rates, but different partitioning between the HDL-bound and unbound phases, as detailed in Table 4 hereinbelow. Amplitudes (A) and kinetic rates of inactivation (k^inactiv) were derived by fitting the data to a double-exponential curve.

For series [7], the system named is rHDL-apoA-I. Kind of series: Stimulation of enzymatic activity of human PON1 192 isozymes by rHDL-apoA-I. The class given is biochemical. The note with it: all the lactones tested; rHDL/PON1 ratio of 50. On the procedure: as §4, with “Each bar represents the mean and S.D. of at least two independent measurements;” left out
Human PON1-192R and Q isozymes purified from pooled blood samples [Gan, K. N., et al., Drug Metab Dispos, 1991. […] Stimulation of enzymatic activities was measured with various substrates at 1 mM concentration, except for TBBL (0.25 mM).
HDL-mediated stimulation of the enzymatic activity of human PON1 isozymes was determined by incubating PON1 with the highest rHDL-apoA-I concentration (corresponding to the rHDL/PON1 ratio of 50) (FIG. 5B). […]

[8] abbreviates: substrate γ-dodecanoic lactone 1 mM.
Setting [9] is: substrate δ-nonanoic lactone 1 mM.

B1: wt rePON1-192K: recombinant wild-type PON1 variant G3C9 with C-terminal His8-tag, lysine at position 192, close homologue of rabbit PON1 (protein)
chain: MAKLTALTLLGLGLALFDGQKSSFQTRFNVHREVTPVELPNCNLVKGVDNGSEDLEILPNGLAFISSGLKYPGIMSFDPDKSGKILLMDLNEEDPVVLELGITGNTLDISSFNPHGISTFTDEDNTVYLLVVNHPDSSSTVEVFKFQEEEKSLLHLKTIRHKLLPSVNDIVAVGPEHFYATNDHYFADPYLKSWEMHLGLAWSFVTYYSPNDVRVVAEGFDFANGINISPDGKYVYIAELLAHKIHVYEKHANWTLTPLKSLDFDTLVDNISVDPVTGDLWVGCHPNGMRIFYYDPKNPPGSEVLRIQDILSEEPKVTVVYAENGTVLQGSTVAAVYKGKLLIGTVFHKALYCEL
modifications: C-terminal His8 tag; WT rePON1-192K
notes: recombinant wild-type PON1 variant G3C9 with C-terminal His8-tag, lysine at position 192, close homologue of rabbit PON1
Consider B1, for which the “A2 (%) (amplitude of second, slow inactivation phase = HDL-bound fraction)” value in series [1] is on record as 100%. The figures for the “k2^inactiv (second, slow phase)” value in series [1] and in series [2] were 0.01 h⁻¹ and 0.2 h⁻¹, respectively. For the same molecule, the “k1^inactiv (first, fast phase)” value in series [2] was found to be 4.5 h⁻¹. Besides, in series [3], the “fold higher HDL binding affinity than the Q isozyme” value stood at 3 fold. Also, the “Kapp (apparent affinity for HDL stimulation)” value in series [4] (substrate TBBL 0.25 mM) was 0.5 ± 0.1 µM; in series [4] (substrate paraoxon 1 mM), 0.6 ± 0.1 µM; in series [4] (substrate phenyl acetate 1 mM), 0.5 ± 0.1 µM; in series [4] (setting [8]) it was 1.2 ± 0.1 µM; in series [4] (setting [9]), 1.3 ± 0.1 µM; in series [4] (substrate δ-valerolactone 1 mM) it was 1.3 ± 0.1 µM. The “Vmax (%) activation factor” value was found to be 791 ± 10% in series [4] (substrate TBBL 0.25 mM); 222 ± 2% in series [4] (substrate paraoxon 1 mM); 425 ± 4% in series [4] (substrate phenyl acetate 1 mM); 1830 ± 22% in series [4] (setting [8]); 1580 ± 19% in series [4] (setting [9]); 1724 ± 23% in series [4] (substrate δ-valerolactone 1 mM). The “HDL affinity of the intact rePON1” value in series [5] is “sub-nanomolar”.

B2: human PON1-192R: human PON1 192R isozyme purified from pooled blood samples (protein)
chain: AKLIALTLLGMGLALFRNHQSSYQTRLNALREVQPVELPNCNLVKGIETGSEDLEILPNGLAFISSGLKYPGIKSFNPNSPGKILLMDLNEEDPTVLELGITGSKFDVSSFNPHGISTFTDEDNAMYLLVVNHPDAKSTVELFKFQEEEKSLLHLKTIRHKLLPNLNDIVAVGPEHFYGTNDHYFLDPYLRSWEMYLGLAWSYVVYYSPSEVRVVAEGFDFANGINISPDGKYVYIAELLAHKIHVYEKHANWTLTPLKSLDFNTLVDNISVDPETGDLWVGCHPNGMKIFFYDSENPPASEVLRIQNILTEEPKVTQVYAENGTVLQGSTVASVYKGKLLIGTVFHKALYCEL
For the molecule B2, in series [6], the “A2(%) (slow phase, HDL-bound fraction)” value is recorded as 87%; the “k1^inactiv (first, fast phase)” value came out at 0.4 h⁻¹; the “k2^inactiv (second, slow phase)” value turned out to be 0.01 h⁻¹. Besides, in series [7], the “fold higher activation level than 192Q” value was “about 2 fold”.
